This passage reports activity (transposition frequency) and activity (% supercoiled plasmid converted) results from patent publication US6406896.

In data set [1] the target is Tn5 transposase wild-type (Tnp WT) (UniProt Q46731). Kind of data set: cell_activity. The following applies: mating out.
For data set [2], the system named is Tnp E344K plus one E344K. Kind of data set: cell_activity. The following applies: mating out, dam+ strain.
Data set [3] has as its system Tnp E58V plus one E58V. Kind of data set: cell_activity. Particulars: mating out, dam+ strain.
Data set [4] has as its system Tnp L372Q plus one L372Q. Kind of data set: cell_activity. Particulars: mating out, dam+ strain.
For data set [5], the system named is Tnp T171S plus one T171S. Kind of data set: cell_activity. The following applies: mating out, dam+ strain.
The target of data set [6] is Tnp sC7 R8C,E58V,A157T,T171S,D217A,E344K,L372Q (UniProt Q46731). Kind of data set: cell_activity. Particulars: mating out.
Data set [7] deals with Tnp sC7(157,171) R8C,E58V,D217A,E344K,L372Q. Kind of data set: cell_activity. Particulars: mating out, dam+ strain.
Data set [8] relates to Tnp sC7(157,217) R8C,E58V,T171S,E344K,L372Q. Kind of data set: cell_activity. Particulars: mating out, dam+ strain.
The test system of data set [9] is Tnp sC7(171,217) R8C,E58V,A157T,E344K,L372Q. Kind of data set: cell_activity. Particulars: mating out, dam+ strain.
Data set [10] has as its system Tnp sC7v2.0 (sC7(157,171,217)) R8C,E58V,E344K,L372Q. Kind of data set: cell_activity. Particulars: mating out, dam+ strain.
Data set [11] has as its system sC7 A157T minus one R8C,E58V,T171S,D217A,E344K,L372Q. Kind of data set: cell_activity. Particulars: mating out, dam+ strain.
Data set [12] deals with sC7 D217A minus one R8C,E58V,A157T,T171S,E344K,L372Q. Kind of data set: cell_activity. The following applies: mating out, dam+ strain.
In data set [13] the test system is sC7 E344K minus one R8C,E58V,A157T,T171S,D217A,L372Q. Kind of data set: cell_activity. Particulars: mating out, dam+ strain.
For data set [14], the system named is sC7 E58V minus one R8C,A157T,T171S,D217A,E344K,L372Q. Kind of data set: cell_activity. Particulars: mating out, dam+ strain.
Data set [15] deals with sC7 L372Q minus one R8C,E58V,A157T,T171S,D217A,E344K. Kind of data set: cell_activity. The following applies: mating out, dam+ strain.
Data set [16] has as its system sC7 R8C minus one E58V,A157T,T171S,D217A,E344K,L372Q. Kind of data set: cell_activity. Particulars: mating out, dam+ strain.
In data set [17] the test system is sC7 T171S minus one R8C,E58V,A157T,D217A,E344K,L372Q. Kind of data set: cell_activity. Particulars: mating out, dam+ strain.
Data set [18] concerns Tnp sC7v2.0 purified R8C,E58V,E344K,L372Q. Kind of data set: cleavage_in_vitro. The following applies: dam methylation of adenines in the two GATC sites (four methyl groups per end); in vitro transposition, 3 h, 37C, 280 nM Tnp, 35.5 nM pGT4.
For data set [19], the system named is Tnp A157T plus one A157T. Kind of data set: cell_activity. The following applies: mating out, dam+ strain.
In data set [20] the test system is Tnp D217A plus one D217A. Kind of data set: cell_activity. Particulars: mating out, dam+ strain.
For data set [21], the system named is Tnp R8C plus one R8C. Kind of data set: cell_activity. The following applies: mating out, dam+ strain.
[22] abbreviates: dam methylation of adenines in the two GATC sites (four methyl groups per end), dam+ strain.
The mark [23] stands for this setting: dam methylation of adenines in the two GATC sites (four methyl groups per end).

With Dam-methylated Tn5 inside end (IEME), the activity (transposition frequency) in data set [1] (setting [22]) is 1e-08; in [2] (dam methylation of adenines in the two GATC sites (four methyl groups per end), 4.3-fold over WT) it was 4.3e-08; in [3] (dam methylation of adenines in the two GATC sites (four methyl groups per end), 40000-fold over WT) it was 0.0004; in data set [4] (dam methylation of adenines in the two GATC sites (four methyl groups per end), 8.9-fold over WT), 8.9e-08; in data set [5] (setting [23]), 5.6e-09; in data set [6] (setting [22]) it was 0.0026. Besides, the activity (transposition frequency) in [7] (setting [23]) was determined as 0.0065; in [8] (setting [23]) it was 0.0084; in [9] (setting [23]) it was 0.0058; in data set [10] (setting [23]) it was 0.0074; in [11] (setting [23]), 0.0031; in data set [12] (setting [23]), 0.0037. For the same substance, the activity (transposition frequency) in data set [13] (setting [23]) was 0.00055; in [14] (setting [23]), 1.8e-06; in [15] (setting [23]), 0.00026; in [16] (setting [23]) it was 0.0031; in [17] (setting [23]) it was 0.0028. Besides, in [18], the activity (% supercoiled plasmid converted) worked out at 66.
Regarding Tn5 outside end (OE), the activity (transposition frequency) in [1] (dam- strain, 3.1e-6 in dam+ strain) stood at 6.5e-05; in data set [19], 6.6e-07; in data set [20], 3.4e-06; in data set [2] it was 6.8e-07; in [3], 1.4e-06; in data set [4], 1.1e-05. Further, the activity (transposition frequency) in data set [21] is 4e-07; in [5], 1.8e-06; in data set [6] (dam- strain, 3.3e-6 in dam+ strain) it was 3.7e-05; in [7], 7e-06; in [8], 2.25e-05; in [9], 1.18e-05. The activity (transposition frequency) in [10] came to 7.1e-06; in [11], 4e-06; in [12] it was 4.5e-06; in [13] it was 1.7e-05; in data set [14] it was 1.1e-06; in data set [15] it was 2.8e-07. Also, the activity (transposition frequency) in data set [16] was determined as 6e-06; in data set [17], 2.6e-06.
As for Tn5 inside end (IE), unmethylated, the figures for the activity (transposition frequency) in [1] (dam- strain) and in data set [6] (dam- strain) were 6.5e-05 and 0.0018, respectively.
